Each block holds one molecule with its values, some of them ahead of it.
B1: mouse PD-1, wild type (soluble, monomeric) (domain or fragment, UniProt Q02242 25-169, looked up)
chain: LEVPNGPWRSLTFYPAWLTVSEGANATFTCSLSNWSEDLMLNWNRLSPSNQTEKQAAFCNGLSQPVQDARFQIIQLPNRHDFHMNILDTRRNDSGIYLCGAISLHPKAKIEESPGAELVVTERILETSTRYPSPSPKPEGRFQGM
notes: mouse PD-1, soluble monomeric form used as SPR analyte; the construct used here is not described; also called mPD-1; murine PD-1
B2: human PD-L2 Ig fusion protein (Fc fusion, UniProt Q9BQ51 20-220, looked up)
chain: LFTVTVPKELYIIEHGSNVTLECNFDTGSHVNLGAITASLQKVENDTSPHRERATLLEEQLPLGKASFHIPQVQVRDEGQYQCIIIYGVAWDYKYLTLKVKASYRKINTHILKVPETDEVELTCQATGYPLAEVSWPNVSVPANTSHSRTPEGLYQVTSVLRLKPPPGRNFSCVFWNTHVRELTLASIDLQSQMEPRTHPT
notes: characterized by SEC prior to use; also called huPD-L2; B7-DC; source: bought: R&D Systems

Columns and labels:
[1] = target: human mature dendritic cells expressing PD-L1 and PD-L2
[2] = target: B2; assay: SPR; BIAcore 3000, 25 °C; PD-L1-Ig or PD-L2-Ig immobilized on CM5 chip by amine coupling; soluble monomeric PD-1 or mutants (0.01–100 μM) injected at 20 μl/min; equilibrium Kd, 1:1 Langmuir model; details: both partners purified
[3] = target: T1, human PD-L1 Ig fusion protein (human, UniProt Q9NZQ7 19-238); assay: as above; details: both partners purified
T1 construct: characterized by SEC prior to use; detected on cells with anti-human IgG Fcγ-specific F(ab')2; also called huPD-L1; B7-H1; source: bought: R&D Systems

[4] = target: T2, full-length human PD-1 I126A, on HEK293 cells (human, UniProt Q15116 25-288, I126A); assay: flow cytometry on cells; HEK293 cells transiently transfected with full-length wild type or mutant human PD-1, incubated with PD-L1 or PD-L2 Ig fusion proteins (0.01–50 μg/ml) for one hour on ice; APC anti-human IgG F(ab')2 Fcγ specific; MFI normalized to wild type PD-1 binding; relative binding at 0.5 μg/ml ligand; details: one partner purified
T2 construct: Gateway pEF5/FRT/V5-DEST destination vector; source: HEK293, transiently transfected, on the cell surface
T2 sequence (Q15116 25-288 I126A): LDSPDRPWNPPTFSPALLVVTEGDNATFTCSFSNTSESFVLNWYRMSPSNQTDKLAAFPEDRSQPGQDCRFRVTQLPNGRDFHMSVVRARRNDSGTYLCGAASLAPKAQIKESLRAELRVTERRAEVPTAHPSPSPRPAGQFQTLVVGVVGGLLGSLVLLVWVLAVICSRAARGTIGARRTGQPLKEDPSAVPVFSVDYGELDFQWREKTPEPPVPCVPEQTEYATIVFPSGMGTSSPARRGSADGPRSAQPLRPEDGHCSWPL

T1 sequence (Q9NZQ7 19-238): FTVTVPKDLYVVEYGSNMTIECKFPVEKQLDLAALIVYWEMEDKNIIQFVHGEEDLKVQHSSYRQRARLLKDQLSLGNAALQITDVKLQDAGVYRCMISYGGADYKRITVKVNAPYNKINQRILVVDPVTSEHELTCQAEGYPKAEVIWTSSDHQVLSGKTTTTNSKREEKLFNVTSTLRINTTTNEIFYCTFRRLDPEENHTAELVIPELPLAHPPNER

T cell proliferation (3H-thymidine uptake) in allogeneic MLR with dendritic cells pre-treated with HA PD-1 Ig (0.5–5 μg/ml), against untreated control [1]: > 50%
production of IFN-γ and IL-12p70 in allogeneic MLR, against untreated control (no Ig) [1]: > 6 fold
Molecule: high-affinity human PD-1 (A132L) Ig fusion protein (from UniProt Q15116 25-170) (Fc fusion)

Molecule: B1
Kd [2]: 10.7 µM
Kd [3]: 4.02 µM

Molecule: B2
reduction of binding relative to wild type PD-1 [4]: 50%

— publication PMC5360572 (EBioMedicine, 2017)
